Experiments:
[1] = target: T1, gp130 bound OSM-M1 (gp130:OSM-M1) (human, UniProt P40189 23-619); assay: ELISA, apparent KD (KD,App), gp130 coated, saturating cytokine, soluble OSMR titrated (with gp130)
T1 construct: extracellular domain; Non-covalent complex formed on the plate: gp130 coated, then 200 nM OSM-M1; also called OSM-M1 with gp130; not shown: N-terminal FLAG tag
T1 sequence 1: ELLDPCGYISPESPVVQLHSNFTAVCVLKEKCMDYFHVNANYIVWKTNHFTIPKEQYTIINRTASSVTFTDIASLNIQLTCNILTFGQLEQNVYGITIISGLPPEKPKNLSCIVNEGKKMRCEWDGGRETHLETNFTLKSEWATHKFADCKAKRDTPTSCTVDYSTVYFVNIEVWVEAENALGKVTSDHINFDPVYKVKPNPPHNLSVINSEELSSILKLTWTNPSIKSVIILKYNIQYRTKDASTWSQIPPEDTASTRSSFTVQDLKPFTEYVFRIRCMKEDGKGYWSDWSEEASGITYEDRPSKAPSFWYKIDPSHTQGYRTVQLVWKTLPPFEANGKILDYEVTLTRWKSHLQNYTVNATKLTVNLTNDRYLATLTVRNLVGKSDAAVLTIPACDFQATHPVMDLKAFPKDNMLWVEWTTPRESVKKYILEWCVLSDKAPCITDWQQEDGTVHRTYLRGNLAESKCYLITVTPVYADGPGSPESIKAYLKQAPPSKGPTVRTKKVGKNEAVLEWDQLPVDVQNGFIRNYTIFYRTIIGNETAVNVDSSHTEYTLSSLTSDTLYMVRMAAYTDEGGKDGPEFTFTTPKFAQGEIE
T1 sequence 2: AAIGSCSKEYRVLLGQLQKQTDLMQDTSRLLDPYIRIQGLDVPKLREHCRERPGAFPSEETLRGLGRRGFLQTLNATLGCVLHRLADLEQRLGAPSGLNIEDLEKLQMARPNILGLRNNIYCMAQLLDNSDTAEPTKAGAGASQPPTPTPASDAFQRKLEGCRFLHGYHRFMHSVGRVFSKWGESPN
Procedure: (§1) FIG. 13 graphically depicts an ELISA analysis of soluble OSMR and soluble LIFR binding with LIF, OSM-WT, OSM-M1 and OSM-M2 or gp130 bound LIF (gp130:LIF), OSM-WT (gp130:OSM-WT), OSM-M1 (gp130:OSM-M1) and OSM-M2 (gp130:OSM-M2). Cytokines (LIF, OSM-WT, OSM-M1 or OSM-M2) immobilized on an ELISA plate in the absence (A,C) or presence (B,D) of gp130 were treated with various concentrations of soluble OSMR (A,B) or soluble LIFR (C,D). Equilibrium KD values were estimated using a non-linear curve fitting to the binding data using GraphPad Prism (Graph Pad Software. LaJolla, Calif.). In addition, see Table 3.
(§2) Enzyme-linked immunosorbent assay (ELISA): ELISA was used to evaluate the equilibrium binding strength of the interaction between the cytokines and their receptors. This technique has traditionally been used as a sensitive method to quantify the binding affinities between two interacting proteins. However, unlike in SPR, ELISA involves immobilization of the proteins on a flat plastic surface driven by hydrophobic and ionic interactions. This might cause some distortion in the 3 dimensional structure of immobilized protein which leads to inaccuracies in the estimation of dissociation constants. It is thus important to bear in mind that the values estimated using this technique are to be used only for comparison between species but not as true equilibrium binding constants. The results obtained using this technique will thus be presented as apparent equilibrium dissociation constants (K_{D,App}). For direct interaction studies, cytokines (LIF, OSM-WT, OSM-M1 or OSM-M2) were immobilized on the 96 well ELISA plate by incubating the wells with 200 μl of 5 nM cytokine solution in PBS, pH 7.4 overnight at 4° C. The wells were then blocked with blocking buffer (4% BSA in PBS) for 1 hour at room temperature. […]

[2] = target: T2, gp130 bound OSM-M2 (gp130:OSM-M2) (human, UniProt P40189 23-619); assay: as above
T2 construct: extracellular domain; Non-covalent complex formed on the plate: gp130 coated, then 200 nM OSM-M2; also called OSM-M2 with gp130; not shown: N-terminal FLAG tag
T2 sequence 1: T1 sequence 1
T2 sequence 2: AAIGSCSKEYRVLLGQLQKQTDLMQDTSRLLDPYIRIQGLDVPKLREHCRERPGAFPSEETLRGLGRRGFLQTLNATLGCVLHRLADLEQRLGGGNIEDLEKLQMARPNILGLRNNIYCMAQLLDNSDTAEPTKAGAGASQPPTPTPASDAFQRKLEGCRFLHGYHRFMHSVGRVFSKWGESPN
Procedure: as §1, §2

[3] = target: T3, gp130 bound OSM-WT (gp130:OSM-WT) (human, UniProt P40189 23-619); assay: as above
T3 construct: extracellular domain; Non-covalent complex formed on the plate: gp130 coated, then 200 nM OSM-WT; also called OSM-WT with gp130; not shown: N-terminal FLAG tag
T3 sequence 1: T1 sequence 1
T3 sequence 2: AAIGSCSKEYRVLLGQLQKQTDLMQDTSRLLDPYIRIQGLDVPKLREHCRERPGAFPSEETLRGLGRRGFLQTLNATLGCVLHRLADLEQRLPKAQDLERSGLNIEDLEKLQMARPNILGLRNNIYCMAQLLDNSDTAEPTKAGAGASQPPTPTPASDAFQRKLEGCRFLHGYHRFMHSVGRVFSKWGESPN
Procedure: as §1, §2

[4] = target: T4, gp130 bound LIF (gp130:LIF) (human, UniProt P40189 23-619; P15018 23-202); assay: ELISA, gp130 coated and loaded with LIF, soluble OSMR titrated, anti-OSMR detection, O.D at 450 nm
T4 construct: Non-covalent complex formed on the plate: gp130 coated, then saturating cytokine; also called LIF with gp130
T4 sequence (P15018 23-202 limits assumed, one chain of several): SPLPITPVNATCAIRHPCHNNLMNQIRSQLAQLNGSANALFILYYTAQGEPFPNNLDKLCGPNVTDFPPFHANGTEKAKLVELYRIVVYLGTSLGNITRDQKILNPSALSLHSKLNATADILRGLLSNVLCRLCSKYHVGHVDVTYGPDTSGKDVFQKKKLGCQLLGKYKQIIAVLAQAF

- Kd [1]: 3.71 nM
- Kd [2]: 2.19 nM
- Kd [3]: 10.9 nM
- binding result [4]: no binding (tested: 75 nM)
B1: soluble human OSMR (Oncostatin M receptor) (receptor, UniProt Q99650 28-740, looked up)
chain: ERLPLTPVSLKVSTNSTRQSLHLQWTVHNLPYHQELKMVFQIQISRIETSNVIWVGNYSTTVKWNQVLHWSWESELPLECATHFVRIKSLVDDAKFPEPNFWSNWSSWEEVSVQDSTGQDILFVFPKDKLVEEGTNVTICYVSRNIQNNVSCYLEGKQIHGEQLDPHVTAFNLNSVPFIRNKGTNIYCEASQGNVSEGMKGIVLFVSKVLEEPKDFSCETEDFKTLHCTWDPGTDTALGWSKQPSQSYTLFESFSGEKKLCTHKNWCNWQITQDSQETYNFTLIAENYLRKRSVNILFNLTHRVYLMNPFSVNFENVNATNAIMTWKVHSIRNNFTYLCQIELHGEGKMMQYNVSIKVNGEYFLSELEPATEYMARVRCADASHFWKWSEWSGQNFTTLEAAPSEAPDVWRIVSLEPGNHTVTLFWKPLSKLHANGKILFYNVVVENLDKPSSSELHSIPAPANSTKLILDRCSYQICVIANNSVGASPASVIVISADPENKEVEEERIAGTEGGFSLSWKPQPGDVIGYVVDWCDHTQDVLGDFQWKNVGPNTTSTVISTDAFRPGVRYDFRIYGLSTKRIACLLEKKTGYSQELAPSDNPHVLVDTLTSHSFTLSWKDYSTESQPGFIQGYHVYLKSKARQCHPRFEKAVLSDGSECCKYKIDNPEEKALIVDNLKPESFYEFFITPFTSAGEGPSATFTKVTTPDEHSSM
notes: extracellular domain; Bought; also called soluble OSMR

From patent US20100310509A1 (published 2010)
